{
  "source": "patent US20230383269A1",
  "about": "(DSM AUSTRIA, published 2023)",
  "proteins": {"B1": {"name": "parent alpha/beta hydrolase of SEQ ID NO: 1 (enzyme)", "chain": "MTDQSPETRDIFVPHAFEEQQVDLGEVVMNYVEAGSADHPALLLLPEQTGSWWSYEPVIGLLAESFHVFAVDIRGQGRSTWTPKRYSLDNFGNDLVRFISLVVKRPVIVSGNSSGGVLAAWLSAYAMPGQIRAALCEDTPFFASELVPAHGHSVRQAAGPAFELYRNFLGDQWSVADWDGFAAAAKASPSKIMSLFPSSDEPPQNLKEYDPEWARAFFEGTVALHCPHDLMLSQVKTPILITHHARAVDPHSGDLLGALSDFQAERAQAIIESAGVPVEYASFPDALHMMHQFEPERFAEVLTSWVARLPADTPGAHHHHHH", "notes": "homo-dimer; also called wildtype parent alpha/beta hydrolase; zearalenone-cleaving polypeptide"}},
  "molecular_target": "the molecule itself",
  "experiment": "Blue-Native-PAGE, oligomeric conformation (self-association of identical chains)",
  "description": "Comparison of the native molecular weight (oligomeric conformation) between single purified zearalenone-cleaving polypeptides was done via Blue-Native-PAGE. Dilutions of the elutes were supplied with not denaturating loading dye (e.g. 2× loading dye: 0.126 M tris(hydroxymethyl)aminomethan/hydrochloric acid pH 6.8, 20.0% glycerol, 4.0% Coomassie Blue G-250) and separated on a 4-15% polyacrylamid gel under native conditions (e.g. Mini-PROTEAN® Tetra Cell System, 1658004EDU+4-15% Mini-PROTEAN® TGX™ Precast Protein Gels, 4561083EDU, Bio-Rad Laboratories GmbH) (5× Anode Buffer: 0.125 M Tris(hydroxymethyl)aminomethane, 0.960 M Glycine, 1× Kathode Buffer: Anode Buffer+0.02% Coomassie Blue G250; 200 V, 40 minutes). The peptide bands were visualized by Coomassie staining. The oligomeric state of selected zearalenone-cleaving polypeptides was determined by size exclusion chromatography, SEC-MALS or X-Ray crystallography. Homo-dimers (e.g. SEQ ID NO. 1) migrated faster across the BN-PAGE gel matrix, while homo-tetramers (e.g. SEQ ID NO. 2-35) were retained in the gel matrix to a higher extent. The oligomeric conformation of the zearalenone-cleaving polypeptides was determined relatively to the migration of homo-dimeric and homo-tetrameric peptides.",
  "data": [
    {"protein": "B1", "values": [
      {"measurement": "binding result", "result": "binds"}
    ]}
  ]
}
